{
  "source": "paper PMC5122161",
  "about": "“Novel prokaryotic expression of thioredoxin-fused insulinoma associated protein tyrosine phosphatase 2 (IA-2), its characterization and immunodiagnostic application” (BMC Biotechnology, 2016)",
  "proteins": {"B1": {"name": "intracellular domain of IA-2 fused to thioredoxin (TrxIA-2ic) (domain or fragment, human, UniProt Q16849 604-979, looked up)", "chain": "ARQQDKERLAALGPEGAHGDTTFEYQDLCRQHMATKSLFNRAEGPPEPSRVSSVSSQFSDAAQASPSSHSSTPSWCEEPAQANMDISTGHMILAYMEDHLRNRDRLAKEWQALCAYQAEPNTCATAQGEGNIKKNRHPDFLPYDHARIKLKVESSPSRSDYINASPIIEHDPRMPAYIATQGPLSHTIADFWQMVWESGCTVIVMLTPLVEDGVKQCDRYWPDEGASLYHVYEVNLVSEHIWCEDFLVRSFYLKNVQTQETRTLTQFHFLSWPAEGTPASTRPLLDFRRKVNKCYRGRSCPIIVHCSDGAGRTGTYILIDMVLNRMAKGVKEIDIAATLEHVRDQRPGLVRSKDQFEFALTAVAEEVNAILKALPQ", "notes": "insulinoma associated protein tyrosine phosphatase 2 (IA-2), human, intracellular domain IA-2ic, residues 604 to 979 of the 979-residue protein; codon-optimised synthetic gene adapted from GenBank L18983.1; Thioredoxin was not removed; also called thioredoxin-fused insulinoma associated protein tyrosine phosphatase 2; not shown: thioredoxin (E. coli), N-terminal, kept"}},
  "target": "the molecule itself",
  "experiment": "SEC; Superdex 75 HR 10/30, PBS as mobile phase, room temperature, 1.0 mL/min, 50 ug/500 uL purified TrxIA-2ic injected; calibration with globular standards; eluted fractions identified by western blot with rabbit serum to IA-2",
  "data": [
    {"protein": "B1", "values": [
      {"measurement": "stoichiometry N", "result": 2}
    ]}
  ]
}
